Measured values reported in patent US20210032351A1 (XDCEXPLORER SHANGHAI, published 2021).
Values belong to the binder of their own block, whether it stands above or below them.

Key:
[1] = target: T1, human EGFRvIII-hFc protein (human, UniProt P00533 25-645); assay: ELISA, plate coated with human EGFRvIII-hFc, HRP secondary antibody, absorbance at 450 nm
T1 construct: extracellular domain; made in HEK293 cells, purified on protein A; also called immunogen A; hFc-tagged EGFRvIII protein; not shown: human IgG Fc fragment (hFc) of the pCpC vector
Method: The purified immunogen A (EGFRvIII-hFc) obtained in example 1 (for the preparation method, see step (I) in example 1) is diluted with PBS to a final concentration of 1.0 μg/mL, and then added to a 96-well ELISA plate at 100 μl/well. The plate is sealed with a plastic film and incubated at 4° C. overnight. The next day, the plate is washed twice with a plate washing solution [PBS+0.01% (v/v) Tween20], and added with a blocking solution [PBS+0.01% (v/v) Tween20+1% (w/w) BSA] for blocking 2 hours at room temperature. […] The plate is incubated for 2 hours at 37° C., and then washed 3 times with the plate washing solution [PBS+0.01% (v/v) Tween20]. The plate is added with an HRP (horseradish peroxidase) labeled secondary antibody (purchased from Sigma), incubated at 37° C. for 2 hours, and then washed 3 times with the plate washing solution [PBS+0.01% (v/v) Tween20]. The plate is added with 100 μl of TMB substrate/well, incubated for 30 minutes at room temperature, and then added with 100 μl of stopping solution (1.0N HCl)/well. A450 nm value is read using an ELISA plate reader (SpectraMax 384plus, purchased from Molecular Device), and the results are shown in FIG. 11 and table 19.

[2] = target: T2, human EGFR protein (wild-type), on cells (human, UniProt P00533 25-1210); assay: FACS on HFF-1, HFL-I, QSG-7701, HEEC, HEB, WPMY-1 and MCF-10A cells
T2 construct: whole, on cells; transfected on CHO-K1 cells; endogenous on the human cell lines; the cell is named under assay; also called wild-type EGFR; hEGFR

[3] = target: T3, human EGFRvIII protein on the cell surface (human, UniProt P00533 25-1210); assay: FACS on U87MG-hEGFRvIII cells
T3 construct: whole, on cells; the cell line is named under assay; also called hEGFRvIII; U87MG-hEGFRvIII

[4] = target: T4, human EGFRvIII-hFc protein (human, UniProt P00533 25-645); assay: ELISA, EGFRvIII-hFc coated
T4 construct: extracellular domain; also called immunogen A; hFc-tagged EGFRvIII protein; not shown: human IgG Fc fragment (hFc) of the pCpC vector

[5] = target: T5, human wild-type EGFR protein on the cell surface (human, UniProt P00533 25-1210); assay: FACS on A431 cells
T5 construct: whole, on cells; Endogenous on A431, HEB, U87MG cells and normal human primary hepatocytes; transfected on CHOk1-EGFR cells; The cell is named under assay; also called A431; HEB
Method: The cells are washed twice with the HBSS buffer and are counted, and then the cells are diluted with the HBSS buffer to 2×10⁶ cells/ml, added with 1% goat serum blocking solution, with the percentage being the mass percentage, and incubated on ice for 30 minutes, and then centrifugally washed twice with the HBSS buffer. The collected cells are suspended to 2×10⁶ cells/mL with an FACS buffer (HBSS+1% BSA, with the percentage being the mass percentage), added to a 96-well FACS reaction plate at 100 μL/well, then added with 100 μL/well of the purified EGFRvIII antibody (samples to be tested) obtained in example 2, and incubated on ice for 2 hours. The plate is centrifugally washed twice with the FACS buffer, added with 100 μL/well of a fluorescence (Alexa 488) labeled secondary antibody (purchased from Invitrogen), and then incubated on ice for 1 hour. […] The cells are suspended in 100 μL of the FACS buffer, and the results are detected and analyzed by FACS (FACS Calibur, purchased from BD). Data analysis is performed by using the software (CellQuest) to obtain the mean fluorescence intensity (MFI) of the cells. Data is further analyzed by using the software (GraphPad Prism5) to perform data fitting and calculate EC50. […]

EC50 (read off the curve) [1]: ~0.03 nM | binding result [2]: no binding
B1: Chimeric antibody 7E5 (antibody, human IgG1, V domains shown)
VH: EIQLQQSGPELVKPGASVKVSCKASGYSFTDYNMYWVKQSHGKSLEWIGYVDPSNGGTNYNQKFKGKATLTVDKSSSTAFMHLNSLTSEDSAVYYCARGFFDYWGQGTTLTVSS
VL: DIVMTQSPSSLTVTAGEKVTMSCKSSQSLLNSGNQKNYLTWYQQKPGQPPKLLIYWASNRESGVPDRFTGSGSGKDFTLTISSVQAEDLAVYYCQNDYRYPVTFGAGTKLELK
notes: also called 7E5-2A9 (chimeric)

EC50 [3]: 1.9 nM | OD450 nm at 0.0001 nM antibody [4]: 0.09 OD450 | OD450 nm at 0.001 nM antibody [4]: 0.08 OD450 | OD450 nm at 0.01 nM antibody [4]: 0.19 OD450 | OD450 nm at 0.1 nM antibody [4]: 1.18 OD450 | OD450 nm at 1 nM antibody [4]: 3.45 OD450 | OD450 nm at 10 nM antibody [4]: 3.63 OD450 | OD450 nm at 100 nM antibody [4]: 3.6 OD450 | binding result [5]: no binding
B2: Chimeric antibody 7E5 (antibody, human IgG1, V domains shown)
VH: B1 VH
VL: B1 VL
notes: also called clone 7E5-2A9
